Experimental findings from publication PMC3397946, “Identification and Characterization of the Cognate Anti-Sigma Factor and Specific Promoter Elements of a T. tengcongensis ECF Sigma Factor” are described below.

In data set [1] the target is T1, Tt-RpoE1 (Thermoanaerobacter tengcongensis MB4T, UniProt Q8RCT7 1-162).
T1 sequence: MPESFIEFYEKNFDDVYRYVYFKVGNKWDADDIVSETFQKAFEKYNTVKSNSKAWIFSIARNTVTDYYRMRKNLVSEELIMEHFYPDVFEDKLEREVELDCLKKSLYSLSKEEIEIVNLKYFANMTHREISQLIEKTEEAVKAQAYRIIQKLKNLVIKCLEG
As to the kind of experiment: EMSA; 5 uM protein; little effect; 50 mM Tris-HCl pH 8.0, 10 mM MgAc2, 30 mM NaCl, 1 mM DTT, 5% glycerol, 30 ug/ml BSA, 0.5 mM EDTA, 1 ug poly(dI-dC), 20 fmol probe in 20 ul, 25 C, 20 min. The following applies: protein: recombinant, tags: His (pET28a), label: 5'-32P top strand. (Mobility shift assays separate free from complexed probe on a gel.)

For data set [2], the target named is T1, Tt-RpoE1. As to the kind of experiment: EMSA; 5 uM protein; strongest; 50 mM Tris-HCl pH 8.0, 10 mM MgAc2, 30 mM NaCl, 1 mM DTT, 5% glycerol, 30 ug/ml BSA, 0.5 mM EDTA, 1 ug poly(dI-dC), 20 fmol probe in 20 ul, 25 C, 20 min. As to conditions: protein: recombinant; tags: His (pET28a); label: 5'-32P top strand; fork: top 3' overhang 12 nt.
In data set [3] the target is T1, Tt-RpoE1. The data set can be described thus: EMSA; 5 uM protein; abolished; 50 mM Tris-HCl pH 8.0, 10 mM MgAc2, 30 mM NaCl, 1 mM DTT, 5% glycerol, 30 ug/ml BSA, 0.5 mM EDTA, 1 ug poly(dI-dC), 20 fmol probe in 20 ul, 25 C, 20 min. The following applies: protein: recombinant; tags: His (pET28a); label: 5'-32P top strand; fork: top 3' overhang 10 nt.
Data set [4] concerns the target T1, Tt-RpoE1. The data set can be described thus: EMSA; 5 uM protein; abolition; 50 mM Tris-HCl pH 8.0, 10 mM MgAc2, 30 mM NaCl, 1 mM DTT, 5% glycerol, 30 ug/ml BSA, 0.5 mM EDTA, 1 ug poly(dI-dC), 20 fmol probe in 20 ul, 25 C, 20 min. As to conditions: protein: recombinant; tags: His (pET28a); label: 5'-32P top strand; fork: top 3' overhang 10 nt.
Data set [5] concerns the target T1, Tt-RpoE1. As to the kind of experiment: EMSA; 5 uM protein; parental; 50 mM Tris-HCl pH 8.0, 10 mM MgAc2, 30 mM NaCl, 1 mM DTT, 5% glycerol, 30 ug/ml BSA, 0.5 mM EDTA, 1 ug poly(dI-dC), 20 fmol probe in 20 ul, 25 C, 20 min. The following applies: protein: recombinant; tags: His (pET28a); label: 5'-32P top strand; fork: top 3' overhang 12 nt.
In data set [6] the target is T2, Tt-RpoE1 R69A (Thermoanaerobacter tengcongensis MB4T, UniProt Q8RCT7 1-162, R69A).
T2 sequence: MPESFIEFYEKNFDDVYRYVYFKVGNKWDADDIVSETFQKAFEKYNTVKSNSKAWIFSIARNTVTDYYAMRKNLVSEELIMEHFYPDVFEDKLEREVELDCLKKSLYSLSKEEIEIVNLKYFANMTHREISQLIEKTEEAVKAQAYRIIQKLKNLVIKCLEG
As to the kind of experiment: EMSA; 5 uM protein; affinity remained; 50 mM Tris-HCl pH 8.0, 10 mM MgAc2, 30 mM NaCl, 1 mM DTT, 5% glycerol, 30 ug/ml BSA, 0.5 mM EDTA, 1 ug poly(dI-dC), 20 fmol probe in 20 ul, 25 C, 20 min. As to conditions: protein: recombinant; tags: His (pET28a); label: 5'-32P top strand; fork: top 3' overhang 12 nt.

Data set [7] has as its target T3, Tt-RpoE1 Y67A (Thermoanaerobacter tengcongensis MB4T, UniProt Q8RCT7 1-162, Y67A).
T3 sequence: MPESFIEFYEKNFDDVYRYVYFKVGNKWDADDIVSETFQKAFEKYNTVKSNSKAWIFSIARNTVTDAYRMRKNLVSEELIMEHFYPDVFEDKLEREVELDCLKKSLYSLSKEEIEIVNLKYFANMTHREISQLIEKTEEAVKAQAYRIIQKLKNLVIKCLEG
Described as above. As to conditions: protein: recombinant; tags: His (pET28a); label: 5'-32P top strand; fork: top 3' overhang 12 nt.

For data set [8], the target named is T1, Tt-RpoE1. As to the kind of experiment: EMSA; 5 uM protein; 50 mM Tris-HCl pH 8.0, 10 mM MgAc2, 30 mM NaCl, 1 mM DTT, 5% glycerol, 30 ug/ml BSA, 0.5 mM EDTA, 1 ug poly(dI-dC), 20 fmol probe in 20 ul, 25 C, 20 min. The following applies: protein: recombinant; tags: His (pET28a); label: 5'-32P top strand; fork: top 3' overhang 10 nt.
In data set [9] the target is T4, Tt-RpoE1 D66A (Thermoanaerobacter tengcongensis MB4T, UniProt Q8RCT7 1-162, D66A).
T4 sequence: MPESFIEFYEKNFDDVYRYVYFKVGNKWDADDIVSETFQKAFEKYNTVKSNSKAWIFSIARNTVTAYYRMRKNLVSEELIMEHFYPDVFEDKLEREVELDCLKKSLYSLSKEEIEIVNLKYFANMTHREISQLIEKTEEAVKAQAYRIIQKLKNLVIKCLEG
As to the kind of experiment: EMSA; 5 uM protein; D66A cures -12G defect; 50 mM Tris-HCl pH 8.0, 10 mM MgAc2, 30 mM NaCl, 1 mM DTT, 5% glycerol, 30 ug/ml BSA, 0.5 mM EDTA, 1 ug poly(dI-dC), 20 fmol probe in 20 ul, 25 C, 20 min. The following applies: protein: recombinant; tags: His (pET28a); label: 5'-32P top strand; fork: top 3' overhang 12 nt.

B1: D-5-BM4 (-9TATA-6 to CCCC) (dsDNA)
DNA 1: TGTTACCTTTTGTGTAGATTTTCGTCCCCCAAGGTG
DNA 2: CGAAAATCTACACAAAAGGTAACA
As to B1, the binding result in data set [1] (fork: top 3' overhang 12 nt) was “binds”.

B2: T+1/B-12 (dsDNA)
DNA 1: GGTATTGTTACCTTTTGTGTAGATTTTCGTCTATAAAGGTG
DNA 2: CGAAAATCTACACAAAAGGTAACAATACC
On to B2, for which the binding result in data set [2] is “binds”.

B3: D-5-6c (-30C to T) (dsDNA)
DNA 1: TGTTATCTTTTGTGTAGATTTTCGTCTATAAAGGTG
DNA 2: GACGAAAATCTACACAAAAGATAACA
For B3, the binding result in data set [3] is reported as “no binding”.

B4: D-5-B1C (-13C to T) (dsDNA)
DNA 1: TGTTACCTTTTGTGTAGATTTTTGTCTATAAAGGTG
DNA 2: CAAAAATCTACACAAAAGGTAACA
For the molecule B4, the binding result in [1] (fork: top 3' overhang 12 nt) is given as “binds”.

B5: D-5-M5 (-32TACC-29 to GGTT) (dsDNA)
DNA 1: TGTGGTTTTTTGTGTAGATTTTCGTCTATAAAGGTG
DNA 2: GACGAAAATCTACACAAAAAACCACA
As for B5, the binding result in data set [4] is reported as “no binding”.

B6: D-5-b5t/-12 (-9T to G) (dsDNA)
DNA 1: TGTTACCTTTTGTGTAGATTTTCGTCGATAAAGGTG
DNA 2: CGAAAATCTACACAAAAGGTAACA
B6: the binding result in data set [1] (fork: top 3' overhang 12 nt) is “binds”.

B7: D-5/-12 (dsDNA)
DNA 1: TGTTACCTTTTGTGTAGATTTTCGTCTATAAAGGTG
DNA 2: CGAAAATCTACACAAAAGGTAACA
Consider B7, for which the binding result in data set [5], in data set [6] and in data set [7] was “binds” in each case.

B8: D-5-BM3 (-9TA-8 to CC) (dsDNA)
DNA 1: TGTTACCTTTTGTGTAGATTTTCGTCCCTAAAGGTG
DNA 2: CGAAAATCTACACAAAAGGTAACA
Turning to B8, the binding result in [1] (fork: top 3' overhang 12 nt) is on record as “binds”.

B9: D-5-b8a/-12 (-6A to G) (dsDNA)
DNA 1: TGTTACCTTTTGTGTAGATTTTCGTCTATGAAGGTG
DNA 2: CGAAAATCTACACAAAAGGTAACA
Regarding B9, in data set [1] (fork: top 3' overhang 12 nt), the binding result is reported as “binds”.

B10: D-5-b6a/-12 (-8A to G) (dsDNA)
DNA 1: TGTTACCTTTTGTGTAGATTTTCGTCTGTAAAGGTG
DNA 2: CGAAAATCTACACAAAAGGTAACA
As to B10, the binding result in data set [1] (fork: top 3' overhang 12 nt) is recorded as “binds”.

B11: D-5-7c (-29C to T) (dsDNA)
DNA 1: TGTTACTTTTTGTGTAGATTTTCGTCTATAAAGGTG
DNA 2: GACGAAAATCTACACAAAAAGTAACA
Regarding B11, the binding result in [1] (fork: top 3' overhang 10 nt) is listed as “binds”.

B12: D-5/-10 (dsDNA)
DNA 1: TGTTACCTTTTGTGTAGATTTTCGTCTATAAAGGTG
DNA 2: GACGAAAATCTACACAAAAGGTAACA
With B12, the binding result in data set [8] is “binds”.

B13: D-5-b7t/-12 (-7T to G) (dsDNA)
DNA 1: TGTTACCTTTTGTGTAGATTTTCGTCTAGAAAGGTG
DNA 2: CGAAAATCTACACAAAAGGTAACA
For the molecule B13, in [1] (fork: top 3' overhang 12 nt), the binding result is “binds”.

B14: D-5-B2G (-12G to T) (dsDNA)
DNA 1: TGTTACCTTTTGTGTAGATTTTCTTCTATAAAGGTG
DNA 2: AGAAAATCTACACAAAAGGTAACA
For B14, the binding result in data set [9] is listed as “binds”.
